From US20220372125A1 (ASLAN PHARMACEUTICALS PTE, published 2022)

Key:
[1] = target: T1, Mammalian expressed extracellular human RON protein (Gly25 to Thr957) with His-tag (human, UniProt Q04912 25-957); assay: KinExA, RON-HIS; 95% Confidence Level 2.52 x 106 to 6.93 x 106
T1 construct: Expressed in ExpiCHO cells, purified on nickel; Position of the His-tag is told inconsistently; Written as one chain; also called RON ECD; RON ECD antigen; not shown: His-tag
T1 sequence: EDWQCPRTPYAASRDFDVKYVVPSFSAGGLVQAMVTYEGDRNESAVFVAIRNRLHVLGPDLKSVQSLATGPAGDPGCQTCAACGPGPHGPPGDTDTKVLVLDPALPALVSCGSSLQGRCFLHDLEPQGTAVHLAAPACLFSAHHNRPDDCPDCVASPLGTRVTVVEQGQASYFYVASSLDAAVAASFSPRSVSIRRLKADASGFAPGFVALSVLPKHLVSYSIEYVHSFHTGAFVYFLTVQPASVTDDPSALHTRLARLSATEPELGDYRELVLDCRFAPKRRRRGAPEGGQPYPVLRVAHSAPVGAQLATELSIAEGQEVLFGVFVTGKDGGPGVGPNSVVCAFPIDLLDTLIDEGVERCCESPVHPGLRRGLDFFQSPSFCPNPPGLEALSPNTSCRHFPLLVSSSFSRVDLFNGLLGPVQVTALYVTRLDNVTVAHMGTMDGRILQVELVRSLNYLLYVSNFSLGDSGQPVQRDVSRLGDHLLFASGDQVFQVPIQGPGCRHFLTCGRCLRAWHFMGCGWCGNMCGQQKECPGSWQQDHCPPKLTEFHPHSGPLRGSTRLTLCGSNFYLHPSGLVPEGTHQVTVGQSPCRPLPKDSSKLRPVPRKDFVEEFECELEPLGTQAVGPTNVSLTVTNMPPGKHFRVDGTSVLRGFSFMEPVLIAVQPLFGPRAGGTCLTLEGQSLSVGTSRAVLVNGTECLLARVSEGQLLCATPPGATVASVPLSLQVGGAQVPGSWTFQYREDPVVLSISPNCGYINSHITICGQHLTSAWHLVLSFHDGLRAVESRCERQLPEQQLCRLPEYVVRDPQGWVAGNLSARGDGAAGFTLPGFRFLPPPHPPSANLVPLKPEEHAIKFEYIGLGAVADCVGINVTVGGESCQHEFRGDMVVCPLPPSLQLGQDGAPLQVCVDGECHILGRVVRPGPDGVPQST

[2] = target: RON (Macrophage stimulating protein receptor), full length, on cells (human, UniProt Q04912 25-1400); assay: cell-based or functional assay
[3] = target: T1, Mammalian expressed extracellular human …; assay: KinExA, RON-HIS
[4] = target: T1, Mammalian expressed extracellular human …; assay: KinExA, RON-HIS; 95% Confidence Level 14.92 pM to 49.11 pM
Protocol: (§1) Mammalian produced recombinant extracellular His-tag RON protein was used for affinity measurements. Affinity determinations were carried out in the fixed antigen format. Antibodies were titrated as two-fold dilutions into a fixed concentration of RON antigen. RON protein was detected using mouse monoclonal to 6×His-Tag (Dylight@650, Thermo Fisher). All affinity measurements were carried out using the KinExa 4000 (Sapidyne Instruments).

[5] = target: T1, Mammalian expressed extracellular human …; assay: KinExA, fixed antigen format, antibody titrated into fixed RON ECD-His
From the text: This limitation of the SPR method for highly avid antibodies has been described previously and the use of kinetic exclusion assay has been proposed as a way to overcome this limitation allowing measurements in the sub nanomolar range. We employed the Kinetic Exclusion assay (KinEXa) method to measure the Kd values of all of the new antibodies using a fixed concentration of the recombinant mammalian expressed protein as the target antigen and a twelve-point dilution curve of each antibody. We dropped antibody 9F6, in this assay as it seemed less avid than the other antibodies in preliminary SPR binding assays. The remaining seven antibodies gave exactly accurate results in duplicate analysis (FIG. 6).
as §1

B1: 10G1 (antibody, V domains shown)
VH: EVKLEQSGGGLVQPGGSRKLSCAASGFTFSSFGMHWVRQAPEKGLEWVAYISGGSGTFYYADTVKGRFTISRDNPKNTLFLQMTSLRSEDTAIYYCARSTTVLDYWGQGTTLTVSS
VL: DIVLTQTPSSMYAFLGERVTIICKASQDINNYLNWVQQKPGKAPKTLIYHADRLADGVPSRFSGSGSGQDYSLTISSLEYEDMGIYYCLQYDDFPPFTFGSGTKLEIK
notes: Mouse monoclonal antibody from a hybridoma; kappa light chain; also called Antibody 10G1; anti-RON antibody 10G1
B1 was tested, and the kon [1] was 4.12e+06 M⁻¹ s⁻¹, the “IC50 of inhibition of MSP induced ERK phosphorylation (AlphaLISA SureFire p-ERK, T47D cells)” value [2] was 2800 pM and the koff [3] was 0.000121 s⁻¹. It also gave a Kd [4] of 29.4 pM and a Kd [5] of 29 pM.
